B1: SCARA5 (parent)
chain: VTEDLRLKDWEHSIALRNISLAKG
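Also: lentivirally expressed fusions sorted by FACS into six bins by GFP to DsRed ratio, PSI derived from sequencing read proportions per bin multiplied by bin number.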

In this series the parent is B1. The experiment in a line: protein stability index of a GFP-peptide fusion (GPS, HEK-293T) (PSI 1-6); higher = more stable. The note with it: c terminus: a fixed tail appended.
As to VTEFLRLKDWEHSIALRNISLAKG [D4F], the protein stability index amounted to 2.03. The result for VTENLRLKDWEHSIALRNISLAKG [D4N] reads 3.33; that for VTEGLRLKDWEHSIALRNISLAKG [D4G], 3.04; that for VTEDLRLPDWEHSIALRNISLAKG [K8P], 3.48.

As to VTEDLRLFDWEHSIALRNISLAKG [K8F], the protein stability index was determined as 2.85. The result for VTEDLRLDDWEHSIALRNISLAKG [K8D] reads 3.62; that for VTEDLRLEDWEHSIALRNISLAKG [K8E], 3.49; that for VTEDLRLTDWEHSIALRNISLAKG [K8T], 3.27. As for VTEDLRLWDWEHSIALRNISLAKG [K8W], the figure is 2.57; as for VTEDLRLSDWEHSIALRNISLAKG [K8S], 3.28.

Consider VTEDLRLGDWEHSIALRNISLAKG [K8G], for which the protein stability index turned out to be 3.18.

For VTEDLRLVDWEHSIALRNISLAKG [K8V], the protein stability index turned out to be 2.82. As for VTEDLRLYDWEHSIALRNISLAKG [K8Y], the figure is 2.83. The result for VTEDLRLADWEHSIALRNISLAKG [K8A] reads 3.43; that for VTEDLRLMDWEHSIALRNISLAKG [K8M], 2.77. The result for VTEDLRLHDWEHSIALRNISLAKG [K8H] reads 3.44. Regarding VTEDLRLRDWEHSIALRNISLAKG [K8R], the protein stability index came out at 3.11.

As to VTEDLRLIDWEHSIALRNISLAKG [K8I], the protein stability index is 2.87. The result for VTEDLRLLDWEHSIALRNISLAKG [K8L] reads 3.04; that for VTEDLRLCDWEHSIALRNISLAKG [K8C], 3.25; that for VTEDLRLNDWEHSIALRNISLAKG [K8N], 3.48. As to VTEDLRLQDWEHSIALRNISLAKG [K8Q], the protein stability index was found to be 2.91. The result for STEDLRLKDWEHSIALRNISLAKG [V1S] reads 3.74. The result for NTEDLRLKDWEHSIALRNISLAKG [V1N] reads 3.98; that for WTEDLRLKDWEHSIALRNISLAKG [V1W], 3.42. The result for KTEDLRLKDWEHSIALRNISLAKG [V1K] reads 3.34.

Regarding HTEDLRLKDWEHSIALRNISLAKG [V1H], the protein stability index was found to be 3.89. The result for FTEDLRLKDWEHSIALRNISLAKG [V1F] reads 2.81. The result for DTEDLRLKDWEHSIALRNISLAKG [V1D] reads 3.75; that for ATEDLRLKDWEHSIALRNISLAKG [V1A], 3.77; that for TTEDLRLKDWEHSIALRNISLAKG [V1T], 3.89. As for MTEDLRLKDWEHSIALRNISLAKG [V1M], the figure is 3.5; as for ETEDLRLKDWEHSIALRNISLAKG [V1E], 3.98. As to CTEDLRLKDWEHSIALRNISLAKG [V1C], the protein stability index is 2.72.

Turning to PTEDLRLKDWEHSIALRNISLAKG [V1P], the protein stability index stood at 3.88. As for QTEDLRLKDWEHSIALRNISLAKG [V1Q], the figure is 4.04; as for RTEDLRLKDWEHSIALRNISLAKG [V1R], 3.39; as for GTEDLRLKDWEHSIALRNISLAKG [V1G], 3.15.

For the variant ITEDLRLKDWEHSIALRNISLAKG [V1I], the protein stability index came to 3.54. As for YTEDLRLKDWEHSIALRNISLAKG [V1Y], the figure is 2.83; as for LTEDLRLKDWEHSIALRNISLAKG [V1L], 3.26; as for VTEDLRLKGWEHSIALRNISLAKG [D9G], 2.29. The result for VTEDLRLKIWEHSIALRNISLAKG [D9I] reads 2.27.

Regarding VTEDLRLKKWEHSIALRNISLAKG [D9K], the protein stability index turned out to be 2.82. As for VTEDLRLKCWEHSIALRNISLAKG [D9C], the figure is 3.09. The result for VTEDLRLKFWEHSIALRNISLAKG [D9F] reads 2.44. As for VTEDLRLKQWEHSIALRNISLAKG [D9Q], the figure is 3.31; as for VTEDLRLKHWEHSIALRNISLAKG [D9H], 2.71. With VTEDLRLKNWEHSIALRNISLAKG [D9N], the protein stability index was 3.12. For the variant VTEDLRLKLWEHSIALRNISLAKG [D9L], the protein stability index was determined as 2.64. As for VTEDLRLKRWEHSIALRNISLAKG [D9R], the figure is 3.14; as for VTEDLRLKEWEHSIALRNISLAKG [D9E], 3.17. As for VTEDLRLKPWEHSIALRNISLAKG [D9P], the figure is 3.37; as for VTEDLRLKMWEHSIALRNISLAKG [D9M], 1.96; as for VTEDLRLKAWEHSIALRNISLAKG [D9A], 2.94. Consider VTEDLRLKSWEHSIALRNISLAKG [D9S], for which the protein stability index was found to be 3.17. As for VTEDGRLKDWEHSIALRNISLAKG [L5G], the figure is 3.93. As for VTEDMRLKDWEHSIALRNISLAKG [L5M], the figure is 3.46. The result for VTEDDRLKDWEHSIALRNISLAKG [L5D] reads 4.14; that for VTEDARLKDWEHSIALRNISLAKG [L5A], 3.92; that for VTEDPRLKDWEHSIALRNISLAKG [L5P], 3.77. VTEDWRLKDWEHSIALRNISLAKG [L5W]: the protein stability index came out at 3.35. The result for VTEDHRLKDWEHSIALRNISLAKG [L5H] reads 3.91. As to VTEDNRLKDWEHSIALRNISLAKG [L5N], the protein stability index was 3.83. The result for VTEDFRLKDWEHSIALRNISLAKG [L5F] reads 2.97; that for VTEDQRLKDWEHSIALRNISLAKG [L5Q], 3.73. Take VTEDTRLKDWEHSIALRNISLAKG [L5T]: the protein stability index worked out at 3.68. The result for VTEDIRLKDWEHSIALRNISLAKG [L5I] reads 3.63. On to VTEDRRLKDWEHSIALRNISLAKG [L5R], for which the protein stability index came to 3.74. As for VTEDKRLKDWEHSIALRNISLAKG [L5K], the figure is 4.14; as for VTEDERLKDWEHSIALRNISLAKG [L5E], 4.19. Regarding VTEDVRLKDWEHSIALRNISLAKG [L5V], the protein stability index was found to be 3.65.

Turning to VTEDYRLKDWEHSIALRNISLAKG [L5Y], the protein stability index worked out at 3.34.

Take VTEDSRLKDWEHSIALRNISLAKG [L5S]: the protein stability index is 3.89. Regarding VTEDCRLKDWEHSIALRNISLAKG [L5C], the protein stability index came to 3.34. The result for VREDLRLKDWEHSIALRNISLAKG [T2R] reads 3.21. As for VSEDLRLKDWEHSIALRNISLAKG [T2S], the figure is 3.11. The result for VKEDLRLKDWEHSIALRNISLAKG [T2K] reads 3.65; that for VWEDLRLKDWEHSIALRNISLAKG [T2W], 2.46; that for VIEDLRLKDWEHSIALRNISLAKG [T2I], 2.5. Turning to VHEDLRLKDWEHSIALRNISLAKG [T2H], the protein stability index was 3.52. As for VAEDLRLKDWEHSIALRNISLAKG [T2A], the figure is 3.21; as for VYEDLRLKDWEHSIALRNISLAKG [T2Y], 3.17. The result for VEEDLRLKDWEHSIALRNISLAKG [T2E] reads 4.15; that for VLEDLRLKDWEHSIALRNISLAKG [T2L], 2.49.

With VQEDLRLKDWEHSIALRNISLAKG [T2Q], the protein stability index stood at 3.58. The result for VVEDLRLKDWEHSIALRNISLAKG [T2V] reads 3.48.

Consider VPEDLRLKDWEHSIALRNISLAKG [T2P], for which the protein stability index was found to be 3.69. As for VCEDLRLKDWEHSIALRNISLAKG [T2C], the figure is 3.12. The result for VFEDLRLKDWEHSIALRNISLAKG [T2F] reads 2.61; that for VGEDLRLKDWEHSIALRNISLAKG [T2G], 3.26; that for VMEDLRLKDWEHSIALRNISLAKG [T2M], 3.38. As for VDEDLRLKDWEHSIALRNISLAKG [T2D], the figure is 3.8; as for VNEDLRLKDWEHSIALRNISLAKG [T2N], 3.85.

For the origin of these results see the supplement of paper PMC10567573.
